Measured values as given in patent US20260242735A1 (UNIVERSIT T BASEL, published 2026).

Experiments:
Experiment in all cases: BLI (Octet R8), avidity format: biotinylated CD33 on streptavidin sensor, Refmab #1 as analyte at 300 or 500 nM;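 note: sensorgrams recorded with a 300 s analyte association phase followed by a 900 s dissociation phase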
[1] = molecular target: CD33 variant F21V (recombinant, biotinylated) (human, UniProt P20138 22-259, biotinylated with EZ-Link Sulfo-NHS-LC-Biotin (sites not given))
[2] = molecular target: CD33 variant F21L (recombinant, biotinylated) (human, UniProt P20138 22-259, biotinylated with EZ-Link Sulfo-NHS-LC-Biotin (sites not given))
Sequence of CD33 variant F21L (recombinant, biotinylated) (P20138 other isoform, or with tags, fused parts or gaps F21L F21L): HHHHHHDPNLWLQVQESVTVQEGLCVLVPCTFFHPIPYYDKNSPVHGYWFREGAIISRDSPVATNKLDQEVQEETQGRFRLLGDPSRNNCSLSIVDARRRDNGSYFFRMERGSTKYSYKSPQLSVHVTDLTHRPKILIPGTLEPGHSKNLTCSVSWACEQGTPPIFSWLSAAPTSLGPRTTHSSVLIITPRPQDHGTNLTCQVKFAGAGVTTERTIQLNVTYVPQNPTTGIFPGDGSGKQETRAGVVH

[3] = molecular target: CD33 variant F21I (recombinant, biotinylated) (human, UniProt P20138 22-259, biotinylated with EZ-Link Sulfo-NHS-LC-Biotin (sites not given))
Sequence of CD33 variant F21I (recombinant, biotinylated) (P20138 other isoform, or with tags, fused parts or gaps F21I F21I): as the sequence (P20138 other isoform, or with tags, fused parts or gaps F21L F21L) above, with L10I counted along it

[4] = molecular target: CD33 variant F21S (recombinant, biotinylated) (human, UniProt P20138 22-259, biotinylated with EZ-Link Sulfo-NHS-LC-Biotin (sites not given))
Sequence of CD33 variant F21S (recombinant, biotinylated) (P20138 other isoform, or with tags, fused parts or gaps F21S F21S): as the sequence (P20138 other isoform, or with tags, fused parts or gaps F21L F21L) above, with L10S counted along it

[5] = molecular target: CD33 variant F21M (recombinant, biotinylated) (human, UniProt P20138 22-259, biotinylated with EZ-Link Sulfo-NHS-LC-Biotin (sites not given))
Sequence of CD33 variant F21M (recombinant, biotinylated) (P20138 other isoform, or with tags, fused parts or gaps F21M F21M): as the sequence (P20138 other isoform, or with tags, fused parts or gaps F21L F21L) above, with L10M counted along it

[6] = molecular target: CD33 variant F21N (recombinant, biotinylated) (human, UniProt P20138 22-259, biotinylated with EZ-Link Sulfo-NHS-LC-Biotin (sites not given))
Sequence of CD33 variant F21N (recombinant, biotinylated) (P20138 other isoform, or with tags, fused parts or gaps F21N F21N): as the sequence (P20138 other isoform, or with tags, fused parts or gaps F21L F21L) above, with L10N counted along it

[7] = molecular target: CD33 variant F21Q (recombinant, biotinylated) (human, UniProt P20138 22-259, biotinylated with EZ-Link Sulfo-NHS-LC-Biotin (sites not given))
Sequence of CD33 variant F21Q (recombinant, biotinylated) (P20138 other isoform, or with tags, fused parts or gaps F21Q F21Q): as the sequence (P20138 other isoform, or with tags, fused parts or gaps F21L F21L) above, with L10Q counted along it

[8] = molecular target: CD33 variant F21H (recombinant, biotinylated) (human, UniProt P20138 22-259, biotinylated with EZ-Link Sulfo-NHS-LC-Biotin (sites not given))
[9] = molecular target: CD33 variant W22T (recombinant, biotinylated) (human, UniProt P20138 18-259, biotinylated with EZ-Link Sulfo-NHS-LC-Biotin (sites not given))
Sequence of CD33 variant W22T (recombinant, biotinylated) (P20138 other isoform, or with tags, fused parts or gaps W22T W22T): as the sequence (P20138 other isoform, or with tags, fused parts or gaps F21L F21L) above, with L10F, W11T counted along it

[10] = molecular target: CD33 variant W22E (recombinant, biotinylated) (human, UniProt P20138 18-259, biotinylated with EZ-Link Sulfo-NHS-LC-Biotin (sites not given))
Sequence of CD33 variant W22E (recombinant, biotinylated) (P20138 other isoform, or with tags, fused parts or gaps W22E W22E): as the sequence (P20138 other isoform, or with tags, fused parts or gaps F21L F21L) above, with L10F, W11E counted along it

[11] = molecular target: CD33 variant W22R (recombinant, biotinylated) (human, UniProt P20138 18-259, biotinylated with EZ-Link Sulfo-NHS-LC-Biotin (sites not given))
[12] = molecular target: CD33 variant W22D (recombinant, biotinylated) (human, UniProt P20138 18-259, biotinylated with EZ-Link Sulfo-NHS-LC-Biotin (sites not given))
Sequence of CD33 variant W22D (recombinant, biotinylated) (P20138 other isoform, or with tags, fused parts or gaps W22D W22D): as the sequence (P20138 other isoform, or with tags, fused parts or gaps F21L F21L) above, with L10F, W11D counted along it

[13] = molecular target: CD33 variant W22K (recombinant, biotinylated) (human, UniProt P20138 18-259, biotinylated with EZ-Link Sulfo-NHS-LC-Biotin (sites not given))
Sequence of CD33 variant W22K (recombinant, biotinylated) (P20138 other isoform, or with tags, fused parts or gaps W22K W22K): as the sequence (P20138 other isoform, or with tags, fused parts or gaps F21L F21L) above, with L10F, W11K counted along it

[14] = molecular target: CD33 variant F44P (recombinant, biotinylated) (human, UniProt P20138 18-259, biotinylated with EZ-Link Sulfo-NHS-LC-Biotin (sites not given))
Sequence of CD33 variant F44P (recombinant, biotinylated) (P20138 other isoform, or with tags, fused parts or gaps F44P F44P): as the sequence (P20138 other isoform, or with tags, fused parts or gaps F21L F21L) above, with L10F, F33P counted along it

[15] = molecular target: CD33 variant Y50D (recombinant, biotinylated) (human, UniProt P20138 18-259, biotinylated with EZ-Link Sulfo-NHS-LC-Biotin (sites not given))
Sequence of CD33 variant Y50D (recombinant, biotinylated) (P20138 other isoform, or with tags, fused parts or gaps Y50D Y50D): as the sequence (P20138 other isoform, or with tags, fused parts or gaps F21L F21L) above, with L10F, Y39D counted along it

[16] = molecular target: CD33 variant Y50R (recombinant, biotinylated) (human, UniProt P20138 18-259, biotinylated with EZ-Link Sulfo-NHS-LC-Biotin (sites not given))
[17] = molecular target: CD33 variant Y50K (recombinant, biotinylated) (human, UniProt P20138 18-259, biotinylated with EZ-Link Sulfo-NHS-LC-Biotin (sites not given))
Sequence of CD33 variant Y50K (recombinant, biotinylated) (P20138 other isoform, or with tags, fused parts or gaps Y50K Y50K): as the sequence (P20138 other isoform, or with tags, fused parts or gaps F21L F21L) above, with L10F, Y39K counted along it

[18] = molecular target: CD33 double variant Y50H_H49H (recombinant, biotinylated) (human, UniProt P20138 18-259, biotinylated with EZ-Link Sulfo-NHS-LC-Biotin (sites not given))
[19] = molecular target: T1, CD33 wild type (recombinant, biotinylated) (human, UniProt P20138 18-259, biotinylated with EZ-Link Sulfo-NHS-LC-Biotin (sites not given))
T1 construct: also called WT; CD33 wt
T1 sequence (P20138 other isoform, or with tags, fused parts or gaps): as the sequence (P20138 other isoform, or with tags, fused parts or gaps F21L F21L) above, with L10F counted along it

[20] = molecular target: CD33 variant N20G (recombinant, biotinylated) (human, UniProt P20138 21-259, biotinylated with EZ-Link Sulfo-NHS-LC-Biotin (sites not given))
Sequence of CD33 variant N20G (recombinant, biotinylated) (P20138 other isoform, or with tags, fused parts or gaps N20G N20G): as the sequence (P20138 other isoform, or with tags, fused parts or gaps F21L F21L) above, with N9G, L10F counted along it

[21] = molecular target: CD33 variant N20E (recombinant, biotinylated) (human, UniProt P20138 21-259, biotinylated with EZ-Link Sulfo-NHS-LC-Biotin (sites not given))
Sequence of CD33 variant N20E (recombinant, biotinylated) (P20138 other isoform, or with tags, fused parts or gaps N20E N20E): as the sequence (P20138 other isoform, or with tags, fused parts or gaps F21L F21L) above, with N9E, L10F counted along it

[22] = molecular target: CD33 variant N20K (recombinant, biotinylated) (human, UniProt P20138 21-259, biotinylated with EZ-Link Sulfo-NHS-LC-Biotin (sites not given))
Sequence of CD33 variant N20K (recombinant, biotinylated) (P20138 other isoform, or with tags, fused parts or gaps N20K N20K): as the sequence (P20138 other isoform, or with tags, fused parts or gaps F21L F21L) above, with N9K, L10F counted along it

[23] = molecular target: CD33 variant N20V (recombinant, biotinylated) (human, UniProt P20138 21-259, biotinylated with EZ-Link Sulfo-NHS-LC-Biotin (sites not given))
Sequence of CD33 variant N20V (recombinant, biotinylated) (P20138 other isoform, or with tags, fused parts or gaps N20V N20V): as the sequence (P20138 other isoform, or with tags, fused parts or gaps F21L F21L) above, with N9V, L10F counted along it

[24] = molecular target: CD33 variant N20H (recombinant, biotinylated) (human, UniProt P20138 21-259, biotinylated with EZ-Link Sulfo-NHS-LC-Biotin (sites not given))
Sequence of CD33 variant N20H (recombinant, biotinylated) (P20138 other isoform, or with tags, fused parts or gaps N20H N20H): as the sequence (P20138 other isoform, or with tags, fused parts or gaps F21L F21L) above, with N9H, L10F counted along it

% WT binding [1]: 5.41 % WT binding | % WT binding [2]: 12.2 % WT binding | % WT binding [3]: 0 % WT binding | % WT binding [4]: 9.03 % WT binding | % WT binding [5]: 6.62 % WT binding | % WT binding [6]: 0 % WT binding | % WT binding [7]: 0 % WT binding | % WT binding [8]: 10.4 % WT binding | % WT binding [9]: 37.5 % WT binding | % WT binding [10]: 67.5 % WT binding | % WT binding [11]: 51.9 % WT binding | % WT binding [12]: 12.7 % WT binding | % WT binding [13]: 22.4 % WT binding | % WT binding [14]: 2 % WT binding | % WT binding [15]: 131 % WT binding | % WT binding [16]: 108 % WT binding | % WT binding [17]: 86.6 % WT binding | % WT binding [18]: 95.8 % WT binding | % WT binding [19]: 100 % WT binding | % WT binding [20]: 9.44 % WT binding | % WT binding [21]: 5.59 % WT binding | % WT binding [22]: 6.79 % WT binding | % WT binding [23]: 29.3 % WT binding | % WT binding [24]: 32.9 % WT binding
B1: Refmab #1 (antibody, human IgG1, V domains shown)
VH: EVQLVQSGAEVKKPGSSVKVSCKASGYTITDSNIHWVRQAPGQSLEWIGYIYPYNGGTDYNQKFKNRATLTVDNPTNTAYMELSSLRSEDTAFYYCVNGNPWLAYWGQGTLVTVSS
VL: DIQLTQSPSTLSASVGDRVTITCRASESLDNYGIRFLTWFQQKPGKAPKLLMYAASNQGSGVPSRFSGSGSGTEFTLTISSLQPDDFATYYCQQTKEVPWSFGQGTKVEVK
notes: also called hP67.6; Absolute Antibody Cat. No. Ab00283-10.0
